According to patent US20220177587A1, “METHODS AND USES OF VARIANT CD80 FUSION PROTEINS AND RELATED CONSTRUCTS” (Alpine Immune Sciences, Inc., priority 2018, published 2022):

B1: H18V/A26D/E35D/M47V/V68M/A71G/D90G (protein, UniProt P33681 35-288, looked up, variant H18V A26D E35D M47V V68M A71G D90G)
T-lymphocyte activation …: VIHVTKEVKEVATLSCGVNVSVEELDQTRIYWQKDKKMVLTMMSGDVNIWPEYKNRTIFDITNNLSIMILGLRPSDEGTYECVVLKYEKGAFKREHLAEVTLSVKADFPTPSISDFEIPTSNIRRIICSTSGGFPEPHLSWLENGEELNAINTTVSQDPETELYAVSSKLDFNMTTNHSFMCLIKYGHLRVNQTFNWNTTKQEHFPDNLLPSWAITLISVNGIFVICCLTYCFAPRCRERRRNERLRRESVRPV
modifications: Fc fusion
B2: H18V/A26Q/E35D/M47V/V68L/A71G/D90G (protein, UniProt P33681 35-288, looked up, variant H18V A26Q E35D M47V V68L A71G D90G)
T-lymphocyte activation …: VIHVTKEVKEVATLSCGVNVSVEELQQTRIYWQKDKKMVLTMMSGDVNIWPEYKNRTIFDITNNLSILILGLRPSDEGTYECVVLKYEKGAFKREHLAEVTLSVKADFPTPSISDFEIPTSNIRRIICSTSGGFPEPHLSWLENGEELNAINTTVSQDPETELYAVSSKLDFNMTTNHSFMCLIKYGHLRVNQTFNWNTTKQEHFPDNLLPSWAITLISVNGIFVICCLTYCFAPRCRERRRNERLRRESVRPV
B3: H18F/A26N/E35D/M47V/V68M/A71G/D90K (protein, UniProt P33681 35-288, looked up, variant H18F A26N E35D M47V V68M A71G D90K)
T-lymphocyte activation …: VIHVTKEVKEVATLSCGFNVSVEELNQTRIYWQKDKKMVLTMMSGDVNIWPEYKNRTIFDITNNLSIMILGLRPSDEGTYECVVLKYEKKAFKREHLAEVTLSVKADFPTPSISDFEIPTSNIRRIICSTSGGFPEPHLSWLENGEELNAINTTVSQDPETELYAVSSKLDFNMTTNHSFMCLIKYGHLRVNQTFNWNTTKQEHFPDNLLPSWAITLISVNGIFVICCLTYCFAPRCRERRRNERLRRESVRPV
B4: E35D/D46V/M47L/V68M/L85Q/E88D (EAAAK)3 (protein, UniProt P33681 35-288, looked up, variant E35D D46V M47L V68M L85Q E88D)
T-lymphocyte activation …: VIHVTKEVKEVATLSCGHNVSVEELAQTRIYWQKDKKMVLTMMSGVLNIWPEYKNRTIFDITNNLSIMILALRPSDEGTYECVVQKYDKDAFKREHLAEVTLSVKADFPTPSISDFEIPTSNIRRIICSTSGGFPEPHLSWLENGEELNAINTTVSQDPETELYAVSSKLDFNMTTNHSFMCLIKYGHLRVNQTFNWNTTKQEHFPDNLLPSWAITLISVNGIFVICCLTYCFAPRCRERRRNERLRRESVRPV
modifications: (EAAAK)3 linker
B5: E35D/M47V/N48K/V68M/K89N EAAAK (protein, UniProt P33681 35-288, looked up, variant E35D M47V N48K V68M K89N)
T-lymphocyte activation …: VIHVTKEVKEVATLSCGHNVSVEELAQTRIYWQKDKKMVLTMMSGDVKIWPEYKNRTIFDITNNLSIMILALRPSDEGTYECVVLKYENDAFKREHLAEVTLSVKADFPTPSISDFEIPTSNIRRIICSTSGGFPEPHLSWLENGEELNAINTTVSQDPETELYAVSSKLDFNMTTNHSFMCLIKYGHLRVNQTFNWNTTKQEHFPDNLLPSWAITLISVNGIFVICCLTYCFAPRCRERRRNERLRRESVRPV
modifications: EAAAK linker
B6: E35D/M47V/N48K/V68M/K89N delta (protein)
chain: VIHVTKEVKEVATLSCGHNVSVEELAQTRIYWQKDKKMVLTMMSGDVKIWPEYKNRTIFDITNNLSIMILALRPSDEGTYECVVLKYENDAFKREHLAEVTLSVKTHTCPPCPAPEAEGAPSVFLFPPKPKDTLMISRTPEVTCVVVDVSHEDPEVKFNWYVDGVEVHNAKTKPREEQYNSTYRVVSVLTVLHQDWLNGKEYKCKVSNKALPAPIEKTISKAKGQPREPQVYTLPPSREEMTKNQVSLTCLVKGFYPSDIAVEWESNGQPENNYKTTPPVLDSDGSFFLYSKLTVDKSRWQQGNVFSCSVMHEALHNHYTQKSLSLSPG
B7: E35D/D46V/M47L/V68M/L85Q/E88D delta (protein)
chain: VIHVTKEVKEVATLSCGHNVSVEELAQTRIYWQKDKKMVLTMMSGVLNIWPEYKNRTIFDITNNLSIMILALRPSDEGTYECVVQKYDKDAFKREHLAEVTLSVKTHTCPPCPAPEAEGAPSVFLFPPKPKDTLMISRTPEVTCVVVDVSHEDPEVKFNWYVDGVEVHNAKTKPREEQYNSTYRVVSVLTVLHQDWLNGKEYKCKVSNKALPAPIEKTISKAKGQPREPQVYTLPPSREEMTKNQVSLTCLVKGFYPSDIAVEWESNGQPENNYKTTPPVLDSDGSFFLYSKLTVDKSRWQQGNVFSCSVMHEALHNHYTQKSLSLSPG
B8: H18L, R29D, Y31L, Q33H, K36G, M38I, T41A, M43R, M47T, E81V, L85R, K89N, A91T, F92P, K93V, R94L, E99D, T130A (protein)
chain: VIHVTKEVKEVATLSCGLNVSVEELAQTDILWHKEGKIVLAMRSGDTNIWPEYKNRTIFDITNNLSIVILALRPSDEGTYVCVVRKYENDTPVLEHLADVTLSVKADFPTPSISDFEIPTSNIRRIICSASGGFPEPHLSWLENGEELNAINTTVSQDPETELYAVSSKLDFNMTTNHSFMCLIKYGHLRVNQTFNWNTTKQEHFPDN
B9: H18L, R29D, Y31L, Q33H, K36G, M38I, T41A, M43R, M47T, L70Q, E81V, L85R, K89N, A91T, F92P, K93V, R94L, I118V, T120S, T130A, K169E (protein)
chain: VIHVTKEVKEVATLSCGLNVSVEELAQTDILWHKEGKIVLAMRSGDTNIWPEYKNRTIFDITNNLSIVIQALRPSDEGTYVCVVRKYENDTPVLEHLAEVTLSVKADFPTPSISDFEVPSSNIRRIICSASGGFPEPHLSWLENGEELNAINTTVSQDPETELYAVSSELDFNMTTNHSFMCLIKYGHLRVNQTFNWNTTKQEHFPDN

Assays:
huPD-L1 = huPD-L1 (Homo sapiens, UniProt Q9NZQ7); assay: Flow binding to CHO cells stably expressing PD-L1; set-up: huCTLA4 and huPD-L1, full-length mammalian surface expression constructs were generated; expressed in transfected cells; host or cells: CHO cells, lentiviral transduction, sorted to >98% purity; settings: for PD-L1 MFI at 33.3 nM: CHO cells stably expressing PD-L1; for Ratio of PDL1:CD28: ratio of MFI at 33.3 nM
Procedure, shortened: (§1)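 Cells were first blocked in PBS with 1% BSA and 0.1% sodium azide. Primary staining with fusion protein ran 45 min on ice, and secondary staining with PE anti-human Fc at 1:150 ran 30 min on ice.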

CD28 [1] = target: T1, CD28 (Homo sapiens, UniProt P10747); assay: Flow binding to Jurkat/IL2 reporter cells (CD28); set-up: host or cells: Jurkat cells expressing an IL-2-luciferase reporter
Procedure, shortened: as §1

CD28 [2] = target: T1, CD28; assay: Jurkat/IL2 + CHO/OKT3 +/- PD-L1 reporter assay: PD-L1-dependent CD28 costimulation; assay type: cell-based; set-up: host or cells: Jurkat cells expressing an IL-2-luciferase reporter; settings: 5.0 nM
Procedure, shortened: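 Readout is relative luminescence from lysed cocultures: test protein given 15 min at room temperature to Jurkat cells before adding CHO artificial APCs displaying OKT3 alone or OKT3 plus PD-L1, then 5 h at 37 °C, 5% CO2.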

huCTLA4 = huCTLA4 (Homo sapiens, UniProt P16410); assay: Flow binding to CHO cells stably expressing CTLA4; set-up: huCTLA4 and huPD-L1, full-length mammalian surface expression constructs were generated; expressed in transfected cells; host or cells: CHO cells, lentiviral transduction, sorted to >98% purity; settings: for CTLA4 MFI at 33.3 nM: CHO cells stably expressing CTLA4
Procedure, shortened: as §1

human pan T cells = assay: Anti-CD3 coimmobilization assay, IFN-gamma; assay type: cell-based; settings: Table E34; culture supernatant, 3 days
Method: Costimulatory bioactivity of CD80 fusion variants was determined in anti-CD3 coimmobilization assays. 1 nM or 4 nM mouse anti-human CD3 (OKT3, Biolegends, USA) was diluted in PBS with 1 nM to 80 nM rCD80.Fc variant proteins. This mixture was added to tissue culture treated flat bottom 96-well plates (Corning, USA) overnight to facilitate adherence of the stimulatory proteins to the wells of the plate. The next day, unbound protein was washed off the plates and 100,000 purified human pan T cells (BenTech Bio, US) or human T cell clone BC3 (Astarte Biologics, USA) were added to each well in a final volume of 200 μl of Ex-Vivo 15 media (Lonza, Switzerland). Cells were cultured 3 days before harvesting culture supernatants and measuring human IFN-gamma levels with Duoset ELISA kit (R&D Systems, USA) as described above.

[3] = Table E23, CD80 IgV-Fc (inert) at 33.3 nM
[4] = Table E23, MFI at 33.3 nM relative to CD80 WT IgV-Fc
[5] = Table E23, CD80 IgV-Fc (inert) at 33.3 nM, Jurkat (CD28)
[6] = Table E24, Jurkat/IL2 + CHO/OKT3/PD-L1
[7] = Table E25, linker variants, 33.3 nM
[8] = Table E25, linker variants, relative to CD80 WT IgV-Fc
[9] = Table E25, linker variants, 33.3 nM, Jurkats (CD28)
[10] = Table E26, linker variants, Jurkat/IL2 + CHO/OKT3/PD-L1

Sequence of huPD-L1 (Q9NZQ7 19-290): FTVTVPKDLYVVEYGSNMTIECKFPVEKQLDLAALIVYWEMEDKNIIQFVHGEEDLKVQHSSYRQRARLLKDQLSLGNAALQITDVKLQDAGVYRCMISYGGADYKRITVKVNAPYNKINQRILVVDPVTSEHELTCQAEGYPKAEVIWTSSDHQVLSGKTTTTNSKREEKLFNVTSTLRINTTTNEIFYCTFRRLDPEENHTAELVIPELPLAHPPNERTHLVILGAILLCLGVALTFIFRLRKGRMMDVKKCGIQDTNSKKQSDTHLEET
Sequence of huCTLA4 (P16410 36-223): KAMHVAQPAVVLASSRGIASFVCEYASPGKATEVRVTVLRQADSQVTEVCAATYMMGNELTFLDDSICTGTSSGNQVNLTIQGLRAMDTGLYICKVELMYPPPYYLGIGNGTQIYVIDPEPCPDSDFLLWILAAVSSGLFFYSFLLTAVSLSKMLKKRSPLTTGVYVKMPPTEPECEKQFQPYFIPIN

Molecule | PD-L1 MFI at 33.3 nM (huPD-L1; [3]) | PD-L1 Fold change to WT CD80 (huPD-L1; [4]) | Ratio of PDL1:CD28 (huPD-L1; Table E23) | CD28 MFI at 33.3 nM (CD28 [1]; [5]) | CD28 Fold change to WT CD80 (CD28 [1]; [4]) | Fold Increase over WT CD80-IgV-Fe (CD28 [2]; [6]) | Relative Luciferase Units (RLU), CD80 Conc 5.0 nM (CD28 [2]; [6]) [RLU] | CTLA4 MFI at 33.3 nM (huCTLA4; [3]) | CTLA4 Fold change to WT CD80 (huCTLA4; [4]) | PD-L1 MFI at 33.3 nM (huPD-L1; [7]) | Ratio of PDL1:CD28 (huPD-L1; Table E25, linker variants) | CD28 MFI at 33.3 nM (CD28 [1]; [9]) | Fold Increase over WT CD80-IgV-Fe (CD28 [2]; Table E26, linker variants) | Relative Luciferase Units (RLU), CD80 Conc 5.0 nM (CD28 [2]; [10]) [RLU] | CTLA4 MFI at 33.3 nM (huCTLA4; [7]) | other results
B1 | 67503 | 409.1 | 10.8 | 6253 | 61.3 | 4.5 | 771 | 22132 | 16.0 |  |  |  |  |  |  | 
B2 | 33597 | 203.6 | 10.7 | 3126 | 30.6 | 4.6 | 795 | 17654 | 12.8 |  |  |  |  |  |  | 
B3 | 22395 | 135.7 | 7.1 | 3170 | 31.1 | 5.4 | 919 | 15206 | 11.0 |  |  |  |  |  |  | 
B4 |  |  |  |  |  |  |  |  |  | 25461 | 129 | 197 | 5.25 | 2046 | 32048 | PD-L1 Fold change to WT CD80 (huPD-L1; [8]): 546.4; CD28 Fold change to WT CD80 (CD28 [1]; [8]): 3.5; CTLA4 Fold change to WT CD80 (huCTLA4; [8]): 26.8
B5 |  |  |  |  |  |  |  |  |  | 22862 | 9 | 2634 | 4.38 | 1707 | 27516 | PD-L1 Fold change to WT CD80 (huPD-L1; [8]): 490.6; CD28 Fold change to WT CD80 (CD28 [1]; [8]): 47.1; CTLA4 Fold change to WT CD80 (huCTLA4; [8]): 23.0
B6 |  |  |  |  |  |  |  |  |  | 20442 | 4 | 4678 | 2.63 | 1026 | 3091 | 
B7 |  |  |  |  |  |  |  |  |  | 22538 | 5 | 4173 | 2.77 | 1079 | 12177 | 
B8 |  |  |  |  |  |  |  |  |  |  |  |  |  |  |  | Anti-CD3 IFN-gamma Coimmobilization Assay (human pan T cells): 174 pg/mL
B9 |  |  |  |  |  |  |  |  |  |  |  |  |  |  |  | Anti-CD3 IFN-gamma Coimmobilization Assay (human pan T cells): 232 pg/mL
